Consider one substance from publication PMC11340043.

This assay addresses human LIFR-his (human) (UniProt P42702).

Some results are limits rather than exact numbers.

human LIFR-his (human), sequence (P42702 45-833): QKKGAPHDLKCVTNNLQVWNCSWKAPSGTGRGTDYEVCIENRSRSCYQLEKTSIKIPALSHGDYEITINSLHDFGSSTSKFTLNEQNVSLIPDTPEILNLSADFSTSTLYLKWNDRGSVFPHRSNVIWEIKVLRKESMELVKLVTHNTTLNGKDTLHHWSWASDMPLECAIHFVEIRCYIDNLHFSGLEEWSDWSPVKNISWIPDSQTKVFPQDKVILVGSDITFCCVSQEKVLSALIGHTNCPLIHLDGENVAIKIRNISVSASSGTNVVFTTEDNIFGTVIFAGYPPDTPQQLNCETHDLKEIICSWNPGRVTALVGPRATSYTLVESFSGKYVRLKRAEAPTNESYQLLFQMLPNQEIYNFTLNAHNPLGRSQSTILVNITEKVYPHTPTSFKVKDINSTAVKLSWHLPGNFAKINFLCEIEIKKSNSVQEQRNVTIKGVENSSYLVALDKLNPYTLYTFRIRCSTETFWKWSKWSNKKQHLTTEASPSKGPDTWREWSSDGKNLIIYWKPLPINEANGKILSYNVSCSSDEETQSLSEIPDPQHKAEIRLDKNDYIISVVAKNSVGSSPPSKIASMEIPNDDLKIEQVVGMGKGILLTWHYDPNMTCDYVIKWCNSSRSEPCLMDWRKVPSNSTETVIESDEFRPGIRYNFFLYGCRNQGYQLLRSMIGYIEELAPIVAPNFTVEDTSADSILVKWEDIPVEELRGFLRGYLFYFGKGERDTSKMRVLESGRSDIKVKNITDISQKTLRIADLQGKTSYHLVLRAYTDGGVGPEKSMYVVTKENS
human LIF, sequence (P15018 23-202): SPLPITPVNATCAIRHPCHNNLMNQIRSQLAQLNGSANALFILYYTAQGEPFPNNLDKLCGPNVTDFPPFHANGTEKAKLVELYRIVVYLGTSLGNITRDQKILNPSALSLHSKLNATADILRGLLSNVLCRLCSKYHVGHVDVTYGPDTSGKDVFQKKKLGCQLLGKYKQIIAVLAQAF

The substance “human LIF (from UniProt P15018 23-202) (ligand)” returned an LIF-induced p-STAT3 (Tyr705) in U266 and HCT116 cells, western blot; dose-dependent inhibition by antibody 1G11, inhibition rate at 2 µg/ml 1G11 greater than 90%.
